# Legend:
# HSPB6 phosphopeptide = molecular target: T1, HSPB6 phosphopeptide (Homo sapiens, UniProt O14558); assay: fluorescence anisotropy
# T1 chain: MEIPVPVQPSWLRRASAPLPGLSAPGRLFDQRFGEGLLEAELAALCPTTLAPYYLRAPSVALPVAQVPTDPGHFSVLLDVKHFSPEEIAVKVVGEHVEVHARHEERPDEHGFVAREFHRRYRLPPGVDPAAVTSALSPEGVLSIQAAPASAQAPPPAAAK
# [1] = molecular target: EP300 coregulator peptide (Homo sapiens, UniProt Q09472); assay: fluorescence anisotropy
# [2] = molecular target: MED1 DRIP-2 coregulator peptide (Homo sapiens, UniProt Q15648); assay: anisotropy
# Chain of MED1 DRIP-2 coregulator peptide (Q15648 whole entry): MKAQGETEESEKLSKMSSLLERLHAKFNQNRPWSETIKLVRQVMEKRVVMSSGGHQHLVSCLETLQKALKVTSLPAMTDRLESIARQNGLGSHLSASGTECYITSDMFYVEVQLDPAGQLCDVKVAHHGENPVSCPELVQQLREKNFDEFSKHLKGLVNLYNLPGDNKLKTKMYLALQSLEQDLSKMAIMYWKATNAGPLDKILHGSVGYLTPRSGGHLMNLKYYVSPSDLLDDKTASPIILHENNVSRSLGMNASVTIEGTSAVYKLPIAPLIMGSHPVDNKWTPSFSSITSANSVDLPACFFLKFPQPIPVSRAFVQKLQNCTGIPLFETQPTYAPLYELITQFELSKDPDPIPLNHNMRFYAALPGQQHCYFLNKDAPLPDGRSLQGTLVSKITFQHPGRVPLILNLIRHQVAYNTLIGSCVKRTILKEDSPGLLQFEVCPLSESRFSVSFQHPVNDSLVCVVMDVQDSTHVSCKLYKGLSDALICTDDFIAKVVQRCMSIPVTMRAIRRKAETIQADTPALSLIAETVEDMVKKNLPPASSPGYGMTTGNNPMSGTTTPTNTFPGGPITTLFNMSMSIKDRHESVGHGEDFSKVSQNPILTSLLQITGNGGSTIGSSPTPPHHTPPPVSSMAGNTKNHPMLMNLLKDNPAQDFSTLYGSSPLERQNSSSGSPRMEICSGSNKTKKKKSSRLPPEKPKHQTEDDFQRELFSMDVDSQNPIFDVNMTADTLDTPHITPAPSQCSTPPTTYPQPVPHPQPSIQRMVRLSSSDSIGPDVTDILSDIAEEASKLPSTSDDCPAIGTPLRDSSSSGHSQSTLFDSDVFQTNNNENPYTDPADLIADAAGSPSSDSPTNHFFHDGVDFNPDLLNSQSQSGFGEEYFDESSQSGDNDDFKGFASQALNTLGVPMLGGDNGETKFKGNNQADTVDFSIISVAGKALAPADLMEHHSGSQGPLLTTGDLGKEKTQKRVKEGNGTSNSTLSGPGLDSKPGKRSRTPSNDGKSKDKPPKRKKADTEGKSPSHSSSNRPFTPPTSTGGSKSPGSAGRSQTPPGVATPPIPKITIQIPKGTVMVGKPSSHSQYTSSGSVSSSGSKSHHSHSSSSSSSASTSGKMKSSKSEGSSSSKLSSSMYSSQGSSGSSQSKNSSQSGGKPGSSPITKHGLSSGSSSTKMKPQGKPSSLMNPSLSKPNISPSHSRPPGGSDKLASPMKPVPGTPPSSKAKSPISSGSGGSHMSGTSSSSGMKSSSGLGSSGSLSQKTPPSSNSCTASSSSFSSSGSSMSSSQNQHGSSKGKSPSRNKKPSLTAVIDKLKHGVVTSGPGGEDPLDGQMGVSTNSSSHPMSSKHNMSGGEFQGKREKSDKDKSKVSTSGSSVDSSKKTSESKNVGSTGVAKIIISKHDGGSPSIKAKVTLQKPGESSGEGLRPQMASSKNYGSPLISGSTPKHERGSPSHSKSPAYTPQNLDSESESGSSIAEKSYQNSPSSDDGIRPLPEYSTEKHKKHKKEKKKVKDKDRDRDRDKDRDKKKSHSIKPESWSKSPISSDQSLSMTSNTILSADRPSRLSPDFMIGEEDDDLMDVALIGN
# Chain of EP300 coregulator peptide (Q09472 2-2414): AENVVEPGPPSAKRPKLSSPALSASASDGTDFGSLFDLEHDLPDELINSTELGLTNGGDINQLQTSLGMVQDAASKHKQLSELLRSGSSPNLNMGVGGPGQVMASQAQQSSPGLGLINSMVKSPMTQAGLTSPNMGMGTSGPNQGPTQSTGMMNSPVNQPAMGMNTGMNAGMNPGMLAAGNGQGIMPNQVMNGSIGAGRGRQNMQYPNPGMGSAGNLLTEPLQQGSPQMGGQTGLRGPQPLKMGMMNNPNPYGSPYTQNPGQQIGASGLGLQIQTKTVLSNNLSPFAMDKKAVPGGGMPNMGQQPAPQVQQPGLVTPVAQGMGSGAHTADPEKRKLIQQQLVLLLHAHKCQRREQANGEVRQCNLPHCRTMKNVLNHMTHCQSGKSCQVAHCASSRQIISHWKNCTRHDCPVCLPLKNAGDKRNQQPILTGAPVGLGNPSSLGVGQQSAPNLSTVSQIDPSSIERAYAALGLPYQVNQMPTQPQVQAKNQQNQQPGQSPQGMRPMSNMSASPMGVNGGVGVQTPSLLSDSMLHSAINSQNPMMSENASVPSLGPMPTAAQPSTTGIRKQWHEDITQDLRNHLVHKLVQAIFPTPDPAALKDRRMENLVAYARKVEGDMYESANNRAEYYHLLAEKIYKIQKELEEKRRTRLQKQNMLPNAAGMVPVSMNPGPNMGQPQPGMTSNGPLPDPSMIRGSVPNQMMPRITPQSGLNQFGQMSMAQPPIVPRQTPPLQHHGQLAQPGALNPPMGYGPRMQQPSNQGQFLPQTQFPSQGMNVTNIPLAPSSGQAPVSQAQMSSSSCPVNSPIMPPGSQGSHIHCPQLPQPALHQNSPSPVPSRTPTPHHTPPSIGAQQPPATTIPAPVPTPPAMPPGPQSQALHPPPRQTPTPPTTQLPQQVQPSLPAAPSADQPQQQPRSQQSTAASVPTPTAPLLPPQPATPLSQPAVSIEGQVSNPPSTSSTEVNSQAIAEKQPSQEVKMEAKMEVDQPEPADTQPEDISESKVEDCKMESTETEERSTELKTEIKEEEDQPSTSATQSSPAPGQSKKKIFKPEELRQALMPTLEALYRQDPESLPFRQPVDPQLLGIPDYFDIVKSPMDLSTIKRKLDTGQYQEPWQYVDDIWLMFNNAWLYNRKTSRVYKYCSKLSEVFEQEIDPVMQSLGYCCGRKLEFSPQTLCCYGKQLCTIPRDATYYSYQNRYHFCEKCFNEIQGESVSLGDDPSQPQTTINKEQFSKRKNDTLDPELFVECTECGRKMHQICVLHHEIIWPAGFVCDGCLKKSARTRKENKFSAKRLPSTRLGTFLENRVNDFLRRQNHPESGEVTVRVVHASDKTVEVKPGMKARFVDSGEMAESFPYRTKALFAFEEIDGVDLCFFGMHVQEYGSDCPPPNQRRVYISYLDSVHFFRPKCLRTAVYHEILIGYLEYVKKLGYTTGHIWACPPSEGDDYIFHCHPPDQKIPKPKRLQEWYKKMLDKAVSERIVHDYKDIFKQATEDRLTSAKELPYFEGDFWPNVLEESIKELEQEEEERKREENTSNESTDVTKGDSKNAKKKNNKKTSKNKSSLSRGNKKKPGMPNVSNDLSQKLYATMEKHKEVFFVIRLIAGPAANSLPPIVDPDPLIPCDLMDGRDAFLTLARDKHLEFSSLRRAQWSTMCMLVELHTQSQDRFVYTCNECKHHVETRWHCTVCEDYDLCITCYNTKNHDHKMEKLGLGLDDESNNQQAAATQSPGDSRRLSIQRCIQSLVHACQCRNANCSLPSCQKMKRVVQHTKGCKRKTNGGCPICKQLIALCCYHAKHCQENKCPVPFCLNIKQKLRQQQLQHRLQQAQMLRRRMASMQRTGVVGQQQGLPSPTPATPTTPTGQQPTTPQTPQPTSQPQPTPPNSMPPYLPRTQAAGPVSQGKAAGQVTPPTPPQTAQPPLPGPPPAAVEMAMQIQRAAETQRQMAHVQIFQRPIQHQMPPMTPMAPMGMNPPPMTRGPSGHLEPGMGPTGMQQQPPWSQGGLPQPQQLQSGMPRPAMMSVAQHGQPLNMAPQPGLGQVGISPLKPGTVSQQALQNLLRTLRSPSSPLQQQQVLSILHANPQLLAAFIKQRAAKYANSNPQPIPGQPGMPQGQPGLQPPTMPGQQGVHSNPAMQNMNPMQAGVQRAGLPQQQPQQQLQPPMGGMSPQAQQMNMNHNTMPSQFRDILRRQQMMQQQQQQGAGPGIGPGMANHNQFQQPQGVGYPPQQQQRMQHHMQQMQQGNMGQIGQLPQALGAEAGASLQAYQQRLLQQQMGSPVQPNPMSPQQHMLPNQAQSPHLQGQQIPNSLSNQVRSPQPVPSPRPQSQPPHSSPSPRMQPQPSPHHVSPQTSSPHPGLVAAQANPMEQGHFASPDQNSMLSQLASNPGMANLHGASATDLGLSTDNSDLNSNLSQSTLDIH
Binder,Kd (HSPB6 phosphopeptide),Kd [1],Kd [2]
"14-3-3σ (protein, phosphorylated HSPB6 peptide) MERASLIQKAKLAEQAERYEDMAAFMKGAVEKGEELSCEERNLLSVAYKNVVGGQRAAWRVLSSIEQKSNEEGSEEKGPEVREYREKVETELQGVCDTVLGLLDSHLIKEAGDAESRVFYLKMKGDYYRYLAEVATGDDKKRIIDSARSAYQEAMDISKKEMPPTNPIRLGLALNFSVFHYEIANSPEEAISLAKTTFDEAMADLHTLSEDSYKDSTLIMQLLRDNLTLWTADNAGEEGGEAPQEPQS",0.99 µM,,
PPARγ (protein) MGETLGDSPIDPESDSFTDTLSANISQEMTMVDTEMPFWPTNFGISSVDLSVMEDHSHSFDIKPFTTVDFSSISTPHYEDIPFTRTDPVVADYKYDLKLQEYQSAIKVEPASPPYYSEKTQLYNKPHEEPSNSLMAIECRVCGDKASGFHYGVHACEGCKGFFRRTIRLKLIYDRCDLNCRIHKKSRNKCQYCRFQKCLAVGMSHNAIRFGRMPQAEKEKLLAEISSDIDQLNPESADLRALAKHLYDSYIKSFPLTKAKARAILTGKTTDKSPFVIYDMNSLMMGEDKIKFKHITPLQEQSKEVAIRIFQGCQFRSVEAVQEITEYAKSIPGFVNLDLNDQVTLLKYGVHEIIYTMLASLMNKDGVLISEGQGFMTREFLKSLRKPFGDFMEPKFEFAVKFNALELDDSDLAIFIAVIILSGDRPGLLNVKPIEDIQDNLLQALELQLKLNHPESSQLFAKLLQKMTDLRQIVTEHVQLLQVIKKTETDMSLHPLLQEIYKDLY,,> 10 µM,0.647 µM
